From patent US20250236673A1 (Ablynx, published 2025)
Numbering of substitutions follows the chain as printed. Names may count otherwise. One block for each binder: values may come before it.

Columns and labels:
[1] = biological target: CD8; assay: kinetics, method not stated in Example 3
[2] = biological target: soluble human TNFα (human, UniProt P01375 77-233); assay: cell-based or functional assay
[3] = biological target: T1, human serum albumin (human, UniProt P02768 25-609); assay: SPR on HSA (Example 2; same values as in Table 13)
T1 construct: Immobilised by amine coupling on a C1 chip; also called HSA
T1 sequence (P02768 25-609 limits assumed): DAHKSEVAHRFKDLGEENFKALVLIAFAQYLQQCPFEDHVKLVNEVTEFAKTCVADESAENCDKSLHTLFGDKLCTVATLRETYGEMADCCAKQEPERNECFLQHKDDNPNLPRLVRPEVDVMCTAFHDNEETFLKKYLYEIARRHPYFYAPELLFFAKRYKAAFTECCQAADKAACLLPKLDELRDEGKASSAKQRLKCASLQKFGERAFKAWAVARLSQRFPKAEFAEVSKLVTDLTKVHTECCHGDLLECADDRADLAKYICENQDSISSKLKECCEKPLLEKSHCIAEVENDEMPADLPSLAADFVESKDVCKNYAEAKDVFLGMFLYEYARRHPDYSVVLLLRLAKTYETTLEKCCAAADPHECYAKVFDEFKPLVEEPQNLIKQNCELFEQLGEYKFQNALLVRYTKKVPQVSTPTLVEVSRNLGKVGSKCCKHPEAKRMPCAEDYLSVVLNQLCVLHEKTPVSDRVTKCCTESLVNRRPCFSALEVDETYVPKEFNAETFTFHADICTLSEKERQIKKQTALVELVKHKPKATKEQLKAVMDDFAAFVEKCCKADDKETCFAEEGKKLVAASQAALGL

[4] = biological target: T1, human serum albumin; assay: SPR Biacore 8K+, HSA amine-coupled on C1 chip, ISVD analyte, 1:1 fit
[5] = biological target: T2, recombinant human CEACAM5 (human, UniProt P06731 35-685, limits assumed); assay: SPR on CEACAM5 (Example 2; same values as in Table 13)
T2 construct: Immobilised by amine coupling on a CM5 chip
T2 sequence (looked up): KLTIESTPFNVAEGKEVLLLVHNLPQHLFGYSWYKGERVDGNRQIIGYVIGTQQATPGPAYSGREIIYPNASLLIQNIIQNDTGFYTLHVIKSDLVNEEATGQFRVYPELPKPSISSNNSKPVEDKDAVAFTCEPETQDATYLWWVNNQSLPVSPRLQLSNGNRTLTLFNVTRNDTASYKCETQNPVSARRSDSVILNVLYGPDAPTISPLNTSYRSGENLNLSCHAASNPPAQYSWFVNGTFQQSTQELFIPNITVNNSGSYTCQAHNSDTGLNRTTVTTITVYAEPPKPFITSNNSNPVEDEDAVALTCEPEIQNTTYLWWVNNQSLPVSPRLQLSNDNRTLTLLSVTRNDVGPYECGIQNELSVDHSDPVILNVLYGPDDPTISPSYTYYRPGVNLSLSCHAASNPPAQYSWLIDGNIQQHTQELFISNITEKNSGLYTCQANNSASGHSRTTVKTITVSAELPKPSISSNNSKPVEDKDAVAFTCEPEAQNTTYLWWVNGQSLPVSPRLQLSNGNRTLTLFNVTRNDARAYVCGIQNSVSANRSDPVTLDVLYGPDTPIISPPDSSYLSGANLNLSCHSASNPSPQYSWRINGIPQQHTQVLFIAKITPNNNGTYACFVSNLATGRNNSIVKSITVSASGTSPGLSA

[6] = biological target: T2, recombinant human CEACAM5; assay: SPR Biacore 8K+, CEACAM5 amine-coupled on CM5, ISVD analyte, 1:1 fit

Sequence of soluble human TNFα (P01375 77-233 limits assumed): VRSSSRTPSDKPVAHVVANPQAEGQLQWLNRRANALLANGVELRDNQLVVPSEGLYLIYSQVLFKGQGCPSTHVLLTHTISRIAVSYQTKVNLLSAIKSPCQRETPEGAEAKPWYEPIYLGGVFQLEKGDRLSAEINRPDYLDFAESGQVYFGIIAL

- Kd [1]: 0.113 nM
- koff [1]: 0.000418 s⁻¹
- kon [1]: 3.69e+06 M⁻¹ s⁻¹
B1: A044301298 (VHH)
VHH: EVQLVESGGGVVQPGGSLRLSCAASGFTFEDYAIGWFRQAPGREREEVSCIRTYDEQTYYADSVRGRFTISRDNARNTVSLQMNSLRPEDTALYYCAAGSYYACAYYSRPDPSEGHVDLDYWGQGTLVTVSS

- Kd [1]: 0.122 nM
- koff [1]: 0.000412 s⁻¹
- kon [1]: 3.37e+06 M⁻¹ s⁻¹
B2: A044301152 (VHH)
VHH: B1 VHH with R43K, R65K, R76K

- IC50, inhibition of human TNFα-induced NFkB activation (HEK293_NFkB-NLucP Nano luciferase reporter) [2]: 6.09e-11 M (inferred; column head prints 'Average of ka (1/Ms)')
B3: T031200258 (VHH)
VHH: DVQLVESGGGVVQPGGSLKLSCTASGFTFSTADMGWFRQAPGKGREFVARISGIDGTTYYDEPVKGRFTISRDNSKNTVYLQMNSLKPEDTALYYCRSPRYADQWSAYDYWGKGTLVTVSS

- IC50, inhibition of human TNFα-induced NFkB activation (HEK293_NFkB-NLucP Nano luciferase reporter) [2]: 5.34e-11 M (inferred; column head prints 'Average of ka (1/Ms)')
B4: T031200260 (VHH)
VHH: B3 VHH with N74K

- IC50, inhibition of human TNFα-induced NFkB activation (HEK293_NFkB-NLucP Nano luciferase reporter) [2]: 4.82e-11 M (inferred; column head prints 'Average of ka (1/Ms)')
B5: T031200259 (VHH)
VHH: B3 VHH with R72K

- Kd [3]: 1.28 nM
- koff [3]: 0.000992 s⁻¹
- kon [3]: 772000 M⁻¹ s⁻¹
- Kd [4]: 1.28 nM
- koff [4]: 0.000992 s⁻¹
- kon [4]: 772000 M⁻¹ s⁻¹
B6: T028501805 (VHH)
VHH: EVQLVESGGGVVQPGGSLRLSCAASGFTFRSFGMSWVRQAPGKGPEWVSSISGSGSDTLYADSVKGRFTISRDNSKNTLYLQMNSLRPEDTALYYCTIGGSLSRSSQGTLVTVSS
notes: also called ALB00622; HSA006A06(K83R)

- Kd [5]: 1.24 nM
- koff [5]: 0.000885 s⁻¹
- kon [5]: 716000 M⁻¹ s⁻¹
- Kd [6]: 1.24 nM
- koff [6]: 0.000885 s⁻¹
- kon [6]: 716000 M⁻¹ s⁻¹
B7: T028501789 (VHH)
VHH: EVQLVESGGGVVQPGGSLRLSCAASGLTFSTYTMGWFRQAPGKEREFVAAIIWSGSNTYYADSVKGRFTISRDNAKNTVYLQMNSLRPEDTALYYCAAQHFGPIGLTTRGYHYWGQGTLVTVSS
notes: also called A031500384; A0315007E07(L11V, S76N, N82bS, E83R, V89L, H91Y, N101H)
